Reference: the supplement of paper PMC7877785
± gives the uncertainty stated by the source.

Assay: self-splicing fitness, log relative to wild type (ln ratio); higher = more splicing; Tetrahymena group I intron in knt gene, E. coli kanamycin selection, DiMSum; sequences stand for … in CUCUCU…GGAGGGAAAAGUUAUCAGGCAUGCACCUGGUAGCUAGUCUUUAAACCAAUAGAUUGCAUCGGUUUAAAAGGCAAGACCGUCAAAUUGCGGGAAAGGGGUCAACAGCCGUUCAGUACCAAGUCUCAGGGGAAACUUUGAGAUGGCCUUGCAAAGGGUAUGGUAAUAAGCUGACGGACAUGGUCCUAACCACGCAGCCAAGUCCUAAGUCAACAGAUCUUCUGUUGAUAUGGAUGCAGUUCACAGACUAAAUGUCGGUCGGGGAAGAUGUAUUCUUCUCAUAAGAUAUAGUCGGACCUCUCCUUAAUGGGAGCUAGCGGAUGAAGUGAUGCAACACUGGAGCCGCUGGGAACUAAUUUGUAUGCGAAAGUAUAUUGAUUAGUUUUGGAGUACUCGUGGUCG
Outline: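 Colonies from six replicate transformations of E. coli BL21(DE3) were pooled and amplicon-sequenced on an Illumina HiSeq 2500. The library placed an intron with all eight P1ex-region nucleotides randomised inside the knt kanamycin-resistance gene on pET-22b(+), and cells grew overnight at 37°C or 30°C on LB agar with or without 25 μg/mL kanamycin (plus 100 μg/mL carbenicillin, 50 μM IPTG, 0.2% rhamnose). Fitness is the DiMSum error-weighted combination of wild-type-normalised replicate fold changes, kanamycin versus none.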

Row | Sequence | self-splicing fitness (ln) (30 °C) | self-splicing fitness (ln) (37 °C)
1 | GGUGAGCAAUAUUACGUGGU | -3.51 ± 0.47 | -2.36 ± 0.24
2 | GGUGAGCAAUAUUACGUUGU | -4.18 ± 0.31 | -2.04 ± 0.25
3 | GGUUAGCAAUAUUACGAAAA | -2.05 ± 0.41 | 0.949 ± 0.28
4 | GGUUAGCAAUAUUACGACAG | -1.69 ± 0.2 | -0.85 ± 0.23
5 | GGUUAGCAAUAUUACGACGG | -2.32 ± 0.17 | -1.33 ± 0.22
6 | GGUUAGCAAUAUUACGACUU | -0.187 ± 0.12 | 1.17 ± 0.16
7 | GGUUAGCAAUAUUACGAGAU | – | -1.66 ± 0.33
8 | GGUUAGCAAUAUUACGAUGC | -0.237 ± 0.13 | -0.251 ± 0.16
9 | GGUUAGCAAUAUUACGCCUU | -1.48 ± 0.11 | -0.406 ± 0.14
10 | GGUUAGCAAUAUUACGCGGC | -2.62 ± 0.29 | –
11 | GGUUAGCAAUAUUACGCGUA | -0.642 ± 0.091 | -0.174 ± 0.083
12 | GGUUAGCAAUAUUACGCUGU | -2.1 ± 0.15 | -0.41 ± 0.14
13 | GGUUAGCAAUAUUACGGCAU | -0.0374 ± 0.082 | -0.0754 ± 0.096
14 | GGUUAGCAAUAUUACGGGGU | -3.61 ± 0.4 | -0.0656 ± 0.17
15 | GGUUAGCAAUAUUACGGUAA | -1.02 ± 0.15 | -0.716 ± 0.14
16 | GGUUAGCAAUAUUACGGUCC | -1.77 ± 0.49 | –
17 | GGUUAGCAAUAUUACGUACU | -1.22 ± 0.24 | -1.27 ± 0.32
18 | GGUUAGCAAUAUUACGUCGC | -1.25 ± 0.24 | -0.982 ± 0.26
19 | GGUUAGCAAUAUUACGUCUA | -0.569 ± 0.12 | -0.565 ± 0.093
20 | GUAAAGCAAUAUUACGACCC | -1.28 ± 0.32 | -0.886 ± 0.41
21 | GUAAAGCAAUAUUACGAGAC | -2.46 ± 0.22 | -1.08 ± 0.29

Row | Sequence | self-splicing fitness (ln) (30 °C) | self-splicing fitness (ln) (37 °C)
22 | GUAAAGCAAUAUUACGAGAU | -2.12 ± 0.12 | -1.99 ± 0.15
23 | GUAAAGCAAUAUUACGAGCU | -1.4 ± 0.13 | -0.306 ± 0.18
24 | GUAAAGCAAUAUUACGCAGC | -2.42 ± 0.22 | -1.25 ± 0.2
25 | GUAAAGCAAUAUUACGCAUG | -1.15 ± 0.077 | -0.761 ± 0.1
26 | GUAAAGCAAUAUUACGCCCA | 0.335 ± 0.062 | 0.419 ± 0.085
27 | GUAAAGCAAUAUUACGCCCC | -0.801 ± 0.089 | -0.0225 ± 0.12
28 | GUAAAGCAAUAUUACGCCCG | 0.162 ± 0.18 | -0.247 ± 0.19
29 | GUAAAGCAAUAUUACGCGAA | -0.868 ± 0.08 | -1.25 ± 0.1
30 | GUAAAGCAAUAUUACGCGGG | -1.74 ± 0.12 | -2.08 ± 0.19
31 | GUAAAGCAAUAUUACGCUGC | -2.97 ± 0.24 | -1.97 ± 0.28
32 | GUAAAGCAAUAUUACGGAUC | -0.198 ± 0.12 | 0.205 ± 0.15
33 | GUAAAGCAAUAUUACGGCGG | -1.39 ± 0.1 | -1.76 ± 0.16
34 | GUAAAGCAAUAUUACGGGAA | -2.36 ± 0.11 | -0.287 ± 0.12
35 | GUAAAGCAAUAUUACGGGGA | -2.91 ± 0.19 | -2.4 ± 0.21
36 | GUAAAGCAAUAUUACGGGGC | -3.07 ± 0.23 | -2.29 ± 0.15
37 | GUAAAGCAAUAUUACGGUCU | -0.245 ± 0.071 | 0.0323 ± 0.092
38 | GUAAAGCAAUAUUACGGUGA | -0.896 ± 0.084 | -0.575 ± 0.1
39 | GUAAAGCAAUAUUACGGUUU | -0.83 ± 0.055 | 0.0852 ± 0.077
40 | GUAAAGCAAUAUUACGUACA | -0.0825 ± 0.078 | 0.111 ± 0.09
41 | GUAAAGCAAUAUUACGUCGA | -0.947 ± 0.088 | -0.407 ± 0.1
42 | GUAAAGCAAUAUUACGUGAA | -1.96 ± 0.1 | -1.39 ± 0.12

Row | Sequence | self-splicing fitness (ln) (30 °C) | self-splicing fitness (ln) (37 °C)
43 | GUAAAGCAAUAUUACGUGAU | -2.02 ± 0.085 | -1.52 ± 0.12
44 | GUAAAGCAAUAUUACGUUAA | -2 ± 0.093 | -1.69 ± 0.14
45 | GUACAGCAAUAUUACGAAAA | -1.66 ± 0.19 | -2.31 ± 0.25
46 | GUACAGCAAUAUUACGAAAC | -1.74 ± 0.1 | -0.531 ± 0.12
47 | GUACAGCAAUAUUACGAAAU | -2.34 ± 0.12 | -0.906 ± 0.11
48 | GUACAGCAAUAUUACGAACU | -0.664 ± 0.15 | -1.24 ± 0.2
49 | GUACAGCAAUAUUACGAAUU | -2.29 ± 0.16 | -1.69 ± 0.15
50 | GUACAGCAAUAUUACGACUG | -1.83 ± 0.13 | -1.33 ± 0.14
51 | GUACAGCAAUAUUACGAGUC | -1.88 ± 0.085 | -1.53 ± 0.096
52 | GUACAGCAAUAUUACGAUCU | -0.934 ± 0.087 | -0.527 ± 0.094
53 | GUACAGCAAUAUUACGAUUA | -0.7 ± 0.095 | -0.556 ± 0.1
54 | GUACAGCAAUAUUACGCAGA | – | -2.72 ± 0.2
55 | GUACAGCAAUAUUACGCAUG | -2.26 ± 0.075 | -1.03 ± 0.08
56 | GUACAGCAAUAUUACGCCAC | -1.49 ± 0.39 | –
57 | GUACAGCAAUAUUACGCGUU | -2.61 ± 0.15 | -1.35 ± 0.14
58 | GUACAGCAAUAUUACGGACA | -2.13 ± 0.12 | -1.13 ± 0.1
59 | GUACAGCAAUAUUACGGAGG | -3.92 ± 0.34 | -2.92 ± 0.44
60 | GUACAGCAAUAUUACGGCCG | -1.89 ± 0.1 | -0.534 ± 0.13
61 | GUACAGCAAUAUUACGGGCG | -2.46 ± 0.18 | -1.11 ± 0.15
